Experimental findings from the supplement of paper PMC9942255 are described below.

The test system of the data set is Bacillus subtilis DB104 (SP-AmyQ fusion secretion). The data set can be described thus: AmyQ secretion efficiency, weighted average sort bin (1 = best secretion, 10 = worst) (bin number (weighted average, 1-10)); higher = lower secretion efficiency. Summed up:
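B. subtilis DB104 library expressing mature AmyQ fused to designed signal peptides (amyE-integrated) was encapsulated at about 0.3 cells per ~65 nL alginate bead with fluorescein-starch, grown about 13 h at room temperature and nile red stained. Occupied beads were sorted by large-particle flow cytometry into 10 equally populated bins by green/red fluorescence ratio, and each bin's amplicons were Illumina-sequenced. Secretion score is the read-frequency-weighted average bin number, normalised to beads per bin, excluding low-abundance sequences.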

MKVLLSALLLLLFAFEPSSSGKKL: the AmyQ secretion efficiency is 6.37.
Sequence MKKWLIIAVSLAIAIVLFMSVSFFAKAAGM displayed an AmyQ secretion efficiency of 5.66.
With MFTWIYVVLVLSIAGIGGFSVHAASS, the AmyQ secretion efficiency was 5.5.
The sequence MRRKKKRVLTMCFLGLILFVPTALADNS showed an AmyQ secretion efficiency of 3.09.
Consider MKRITINIITMFIAAAVIEEDEEAEAAEK, for which the AmyQ secretion efficiency worked out at 5.79.
In the case of MKKWMAGLFLAAAVLLCLMIQGASS, the AmyQ secretion efficiency turned out to be 3.95.
With MKWMCSICCAAVLLAGGAAASSSVVAQAEAV, the AmyQ secretion efficiency came to 3.55.
As to MKSKGSIMACLILFSFTITTFINTETWSAFSN, the AmyQ secretion efficiency was 7.56.
Take MIAYFKCLLLVTIMFLGVLFGMQQANHG: the AmyQ secretion efficiency worked out at 6.01.
Consider MKRQGKSKSYAAVILSGWFIADHQTHSQEM, for which the AmyQ secretion efficiency turned out to be 7.16.
The sequence MKMKSGMEQAVSVLLLLSRLPVQASLTRK yielded an AmyQ secretion efficiency of 7.01.
Consider MHLIRAAGAVCLAVVLIAGCRFIIVAIGAEGENT, for which the AmyQ secretion efficiency stood at 6.53.
To MKKKRKKIAGVLTVAAAAMTAKMYATAKGN belongs 7.67.
On to MKRFKKKKSFLSIIVAYPIQTNASPM, for which the AmyQ secretion efficiency came out at 5.88.
For the sequence MLKKIALTLCPAIVGSLLFFTAPTSAHVS, the AmyQ secretion efficiency was 3.63.
As for MNKFLKSNFRFLLAAALGISLLASSNFAKASND, the figure is 1.03.
As to MRSYIKVRRRCRRRLILFVPTALADNS, the AmyQ secretion efficiency was found to be 6.04.
Take MKKSQYFIVFICFFVLFSVHPIASAAADS: the AmyQ secretion efficiency came to 4.61.
As for MMSLLVSLRVWMVFLMNWVTPDRKTAAAAVY, the figure is 5.61; as for MKSKWMSGLLLVAVGFSFTQVMVHEGET, 5.54; as for MKLWMRKTLVVLFTIVTFGLVSPPAARMADKP, 2.4.
As for MKSKGSIMACLILFSFTITTFINTETISTFSN, the figure is 7.54; as for MKRKRSIMACLILFSFTITTFINTETISAFSN, 3.86.
In turn, MKKTIMSFVAVAALSTTAFGAHISAKEI displayed an AmyQ secretion efficiency of 4.65.
As for MTKKRWKTPYVCVLLISGWLAPAASASAQTT, the figure is 1.44; as for MRSYIKVLTMCFLGLILFVEEDALADNS, 2.58; as for MRSYIKVLTMCFLGLILFVPTALVDNS, 5.38.
The sequence MRPVFPLILSAVLFLSCFFGARQTEASARKR came in with an AmyQ secretion efficiency of 2.01.
On to MHLIRAKGAVCLAVVLIAGCRFNEDQHQAEGENT, for which the AmyQ secretion efficiency was found to be 6.02.
In the case of MLKKIALTLCPAIVGSLLFFTAPASAHVE, the AmyQ secretion efficiency came to 2.48.
MLKKIALTLCPAIVGSLLFFTAPASDHVS: the AmyQ secretion efficiency was found to be 5.33.
In the case of MLKKIALTLCPAIVGSLLFFTAPASEHVS, the AmyQ secretion efficiency came out at 6.03.
As to MRPVFPGKGQYVLFLSCFFGARQTEASASKR, the AmyQ secretion efficiency was found to be 6.9.
MLTKRLLTIYIMLLGLITWFPGAAQAEEK displayed an AmyQ secretion efficiency of 2.44.
On to MRKNRILALFVLSLGLLSFMVTPISAASK, for which the AmyQ secretion efficiency worked out at 2.15.
Sequence MKKSQYTTLFIVFICFFVLFSVHPIAAAAADS had an AmyQ secretion efficiency of 2.98.
As for MRSYIKVLTMCFLGLILFVPTALAEEE, the figure is 2.15; as for MKKGIIRFRRVSFVLFFALSTGITGVQAAPA, 2.36.
In turn, MSLWMSKTLVVLFTIVTFGLVSPPAALMADKP returned an AmyQ secretion efficiency of 2.43.
MSKLLAAGIIGLLTVSIASPSFAAEK yielded an AmyQ secretion efficiency of 3.64.
As for MKKQIITATTAVVGAASAQSI, the figure is 7.59; as for MKRIRIPMTYTGTAALTIAPLSFASAEEN, 7.36; as for MNLRKILLSSALSLGMLVSAAPLLATSS, 4.04.
For MKRLKRRKLIGIMLLTFAPSAFAKQD, the AmyQ secretion efficiency was 4.68.
Sequence MKKWMILILAGIALFVFISPLKSHKT gave an AmyQ secretion efficiency of 7.86.
Sequence MTKLKMLSMLRRKKASLFIFSSQALAVQY showed an AmyQ secretion efficiency of 6.44.
MSTLVLCVSILAVILSGVALTQLS showed an AmyQ secretion efficiency of 6.38.
As for MKIRKILLSSALSFGMLISAVPVLAAGT, the AmyQ secretion efficiency is 3.66.
As for MFNRLFRVCFLAALIMAFDDDNSVYAQKP, the figure is 2.33; as for MRRGKKLSVAVAASFMSLSISLPGVQAAEG, 1.3.
As for MLYLKRVLLLLVTGLFMSLFAVTATASAQTG, the figure is 1.49; as for MKQIRKKRKKFMLLAMTGQTALAKDV, 7.04.
MQRRQRYRQRVIVIAALITFNVRNASPG gave an AmyQ secretion efficiency of 8.93.
As for MRMLWRSLALCGLALTLAKRRCAQAAEP, the figure is 6.64.
The sequence MKWYCSICCAAVLLAGGAAQAEAV registered an AmyQ secretion efficiency of 2.63.
On to MKKIKKRKFMFGLVMGFSQFQPSTVFAADK, for which the AmyQ secretion efficiency amounted to 7.57.
As to MKFVKRRIRKKRRRLMLSVTSLFALQPSAKAAEH, the AmyQ secretion efficiency was 6.62.
To MKKAFILSAAAAVGLFTFGGVQQSSAKEL belongs 4.21; to MKSCKQLIVCSLAAILLLIPSVSFSTSTGASSFAADS, 6.07.
Sequence “MKKWMITIAMLILAGIALFVFISPPPFFTAVPSTVLKSHKT” returned an AmyQ secretion efficiency of 6.23.
On to MKLWMRKTLVVLFTIVTFGLVSPPAALMVDKP, for which the AmyQ secretion efficiency is 2.11.
In the case of MKKGKRTRTIGLLTVSIASPSFAAEK, the AmyQ secretion efficiency was 6.26.
In turn, MLKKKWMVGLLAGCLAAGGAFATEN displayed an AmyQ secretion efficiency of 6.32.
As for MRKYTVRRKRKRSFLSVLSGGHHESKAFPV, the figure is 7.56; as for MKVCQKSIVRSGVSLIIGTFVISVPFMANAQSD, 2.46.
In turn, MFNRLFRVCFLAALIMAFTLPNSTYAQKP showed an AmyQ secretion efficiency of 2.43.
For MKSCKQLIVCSLAAILLLIPSVSFSADS, the AmyQ secretion efficiency turned out to be 4.65.
MAIIIAIIAAVIVIAALITFNVRNAKKR showed an AmyQ secretion efficiency of 7.34.
MHLIRAAGAVCLAVVLIAGCRFNEDQHQAEMENT: the AmyQ secretion efficiency was determined as 6.08.
MKKRLIGFLVLVPALIMSGITLIEINKK displayed an AmyQ secretion efficiency of 7.02.
As for MHLIRAAGAVCLARFNEDQHQAEGENT, the AmyQ secretion efficiency is 8.19.
Consider MKRIRIPMTLALGAALTIAPLSFASFEEN, for which the AmyQ secretion efficiency stood at 6.34.
As for MKKIWIGMLAAAVLLLMVPKVVLADAA, the AmyQ secretion efficiency was found to be 3.66.
For the sequence MKRLCLWFTVFSLFLVLLPGKALGAVD, the AmyQ secretion efficiency was 3.84.
For the sequence MKKCLLFLTTIALILSGSTNAFAKNT, the AmyQ secretion efficiency stood at 1.7.
As for MRPVFPLILSAVLFLSCFFGARQTEPSASKR, the figure is 5.61.
To MKKFLVALTMCGGLFVTPAKAVKT belongs 3.65; to MNLRKILLSSALSLGMLVSAAPVLQTSS, 5.33.
MKKQIITATTAVVLGSTLFAGANSAQSI came in with an AmyQ secretion efficiency of 3.08.
The sequence MFNRLFRVCFLAALIMAFTLPNSVYCQKP displayed an AmyQ secretion efficiency of 4.33.
MRKFLLAAALGISLLASSNFIKASND gave an AmyQ secretion efficiency of 4.88.
To MKKKQVMLALTAAAGLGLTALHDAPAAKAAPL belongs 2.66; to MRKSLITLGLASVIGTKASAETL, 5.6; to MKKAFILSAAAAVGLFTFKRRQQASAKEL, 7.06.
For the sequence MKKLLALLAVVAFAFTDSSKAKAAEA, the AmyQ secretion efficiency came out at 2.03.
To MKKIMSAFVGMVLLTIFCRRRQASAAYD belongs 7.16; to MHLIRAAGAVCLAVVLIAGCRFNEDQHQAEPENT, 6.25.
As to MKGWMRTTLVVLFTIVTFGLVSPPAALMADKP, the AmyQ secretion efficiency came out at 7.14.
To MKKAAAVLLSLGLVFGFSYGAGHVMEAKTK belongs 5.11; to MFLKLLLATSALTFSLSLVLPLDGHAKAQEV, 2.93; to MKKQIITATTAVVLGSTLFAGAASGQSI, 2.03.
The sequence MKRSISIFITCLLITLLKRKKRRASPASAAGT registered an AmyQ secretion efficiency of 6.57.
As for MKRIRIPMTLALGAALTIAPLSFASPEEN, the figure is 8.17; as for MLKRTSFVSSLFISSAVLLSILLPSGQAHAQKR, 2.41.
In the case of MLKKVILAAFILVGSTLGRRKRKSRASAKHV, the AmyQ secretion efficiency amounted to 5.28.
In turn, MKSKWMSGLLLVAVGFSFTQVMVHHGET came in with an AmyQ secretion efficiency of 6.33.
As for MGFGSTLVVSALSISALALSVSGVASAHEI, the figure is 3.47.
On to MHLIRAAGAVCLAVVLIAGCRFNEDQHQAEHENT, for which the AmyQ secretion efficiency amounted to 3.89.
To MRKKTKNRLISSVLFMVVIMILLFSPGAAGASSK belongs 1.52; to MKKKQVMLALTAAAGLGLTALHSAPAAKAAPK, 1.55; to MARKRKIIAAVIVIAALITFNVRNASPG, 6.43.
As to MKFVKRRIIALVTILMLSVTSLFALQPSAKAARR, the AmyQ secretion efficiency came out at 1.74.
Regarding MIVIILLFISIIVFLSVIQPQPD, the AmyQ secretion efficiency came out at 4.48.
Sequence MLCVMMLLFSAIASFPVSAQAKKK showed an AmyQ secretion efficiency of 7.53.
As for MSKLVLCVSILAVILSGVALTQLS, the figure is 6.37; as for MKKVKKRRIICLSLILSVLAAPPSGAKAESV, 1.81.
Sequence MKNMSCKLKKSVTLFFSFLTIGPLAHAQNS displayed an AmyQ secretion efficiency of 3.34.
To MRGKSAVLLSLIMLIAGFLITASFPTVTGPPFSFSFQM belongs 8.88.
In turn, MKRIRIPMTLALGAALTIAPLSFASAASN yielded an AmyQ secretion efficiency of 1.02.
